Here are results for three molecules from US7521047 (GPC BIOTECH, dated 2009).

Assay [1] concerns the target T1, human MHC class II DR protein (DRA*0101/DRB1*0401), purified from PRIESS cells (human, UniProt P01903 26-254; P01911 30-266, limits assumed).
T1 construct: mature; also called HLA-DR protein; MHCII
T1 MHC II alpha: not shown
T1 MHC II beta: not shown
Briefly: BiaCore, Fab.

Assay [2] has as its target T2, HLA-DR (DRA*0101/DRB1*0401) on PRIESS cells (human, UniProt P01903 26-254; P01911 30-266).
T2 MHC II alpha: not shown
T2 MHC II beta: not shown
Briefly: cell-based or functional assay.

The target of assay [3] is HLA-DR on MHH-CALL-4 cells (human). Nature of the assay: cell-based or functional assay.
Assay [4] deals with HLA-DR on MN-60 cells (human). Nature of the assay: cell-based or functional assay.
The target of assay [5] is HLA-DR on BJAB cells (human). Briefly: cell-based or functional assay.
In assay [6] the target is HLA-DR on BONNA-12 cells (human). Briefly: cell-based or functional assay.
For assay [7], the target named is T2, HLA-DR (DRA*0101/DRB1*0401) on PRIESS …. Nature of the assay: cell-based or functional assay.
In assay [8] the target is chimeric 0401-IE class II molecule on cells of transgenic mice (human/murine chimera). Nature of the assay: cell-based or functional assay.
Assay [9] has as its target T1, human MHC class II DR protein …. Nature of the assay: SPR (BIAcore), MHCII on CM5 chip.
Assay [10] shares this target. Nature of the assay: SPR (BIAcore), Fab, 8 preparations on 4 chips. Background: In SPR one partner is held on a chip, and binding of the other changes the refractive index at the surface.
For assay [11] the target is unchanged. Briefly: ELISA, coated antigen, Fab 100 ng/well, read at 370 nm. On the procedure: After washing in PBS the anti-human IgG F(ab')_2-peroxidase-conjugate at a 1:10,000 dilution in TBS (supplemented with 5% w/v non-fat drymilk/0.05% v/v Tween 20) was added to each well for 1 h. Final washes were carried out in PBS followed the addition the substrate POD (Roche).
In general terms: In an ELISA, binding on a coated surface is turned into a signal by an enzyme label.

The target of assay [12] is HLA-DR on LG-2 cells (human). Nature of the assay: cell-based or functional assay.
The target in assay [13] is T1, human MHC class II DR protein …. Nature of the assay: SPR (BIAcore), MHCII on CM5 chip.
Assay [14] shares this target. Nature of the assay: BiaCore, Fab.
Assay [15] shares this target. Briefly: SPR (BIAcore), chip density 4000 RU MHCII.

B1: MS-GPC-8 Fab (Fab, V domains shown)
VH: QVQLKESGPALVKPTQTLTLTCTFSGFSLSTSGVGVGWIRQPPGKALEWLALIDWDDDKYYSTSLKTRLTISKDTSKNQVVLTMTNMDPVDTATYYCARSPRYRGAFDYWGQGTLVTVSS
VL: DIVLTQPPSVSGAPGQRVTISCSGSSSNIGSNYVSWYQQLPGTAPKLLIYDNNQRPSGVPDRFSGSKSGTSASLAITGLQSEDEADYYCQSYDMPQAVFGGGTKLTVLG
notes: Fab from pMx9_Fab: VH-CH1 with FLAG tag and STREP tag II, VL-CL; VH residue 1 is Q in Fab; also called B8-Fab; B8
B1: the Kd in [1], in [9] and in [10] was 346 nM throughout. For the same molecule, the koff in assay [1], in assay [9] and in [10] was 0.029 s⁻¹ each time. The kon in [1], in assay [9] and in [10] was 99000 M⁻¹ s⁻¹ each time. The “maximum killing capacity, cross-linked bivalent fragment” value in assay [2] was found to be 84%. The “cell killing, cross-linked Fab, 4 h” value in assay [3], in assay [4], in assay [5] and in assay [6] was over 50% each time. The “maximum capacity to kill MHH-Call 4 cells” value in [3] stood at 65%. Moreover, the “EC50 of cell killing, cross-linked Fab, bivalent agent” value (“EC50 of cell killing” below) in [7] came to 31 nM. Also, the “IC50 of inhibition of IL-2 secretion from T-Hyb 1 cells” value in [8] is 110 nM (half the concentration of the Fab). Further, in assay [8], the “Maximum inhibition(%) of IL-2 secretion” value is 100%. The molecule also had an ELISA signal in [11] of 1.06.

B2: MS-GPC-8-27-41 Fab (Fab, V domains shown)
VH: QVQLKESGPALVKPTQTLTLTCTFSGFSLSTSGVGVGWIRQPPGKALEWLALIDWDDDKYYSTSLKTRLTISKDTSKNQVVLTMTNMDPVDTATYYCARSPRYRGAFDYWGQGTLVTVSS
VL: DIVLTQPPSVSGAPGQRVTISCSGSESNIGNNYVQWYQQLPGTAPKLLIYDNNQRPSGVPDRFSGSKSGTSASLAITGLQSEDEADYYCQSYDMNVHVFGGGTKLTVLG
notes: Fab: VH-CH1 with FLAG tag and STREP tag II, VL-CL; VH residue 1 is Q in Fab; also called 1D09C3
In the case of B2, in [1], binding was characterised by a dissociation constant (Kd) of 2.93 nM, the koff was 0.00049 s⁻¹ and the kon amounted to 167000 M⁻¹ s⁻¹. Also, the “EC50 of cell killing” value in assay [12] came out at 7.2 nM. The “EC50 of cell killing” value in assay [7] came to 7.7 nM. Besides, in [8], the “IC50 of inhibition of IL-2 secretion from T-Hyb 1 cells” value was 3.6 nM (half the concentration of the Fab) and the “Maximum inhibition(%) of IL-2 secretion” value stood at 100%. In assay [9], this molecule displayed a Kd of 2.93 nM, a koff of 0.00049 s⁻¹ and a kon of 167000 M⁻¹ s⁻¹. In [13], this molecule had a Kd of 2.9 nM, a dissociation rate constant (koff) of 0.00049 s⁻¹ and a kon of 170000 M⁻¹ s⁻¹. The ELISA signal in [11] was determined as 1.52.

B3: MS-GPC-8-17 Fab (Fab, V domains shown)
VH: QVQLKESGPALVKPTQTLTLTCTFSGFSLSTSGVGVGWIRQPPGKALEWLALIDWDDDKYYSTSLKTRLTISKDTSKNQVVLTMTNMDPVDTATYYCARSPRYRGAFDYWGQGTLVTVSS
VL: DIVLTQPPSVSGAPGQRVTISCSGSSSNIGSNYVSWYQQLPGTAPKLLIYDNNQRPSGVPDRFSGSKSGTSASLAITGLQSEDEADYYCQSYDFSVYVFGGGTKLTVLG
notes: Fab: VH-CH1 with FLAG tag and STREP tag II, VL-CL; VH residue 1 is Q in Fab; also called 7BA
Regarding B3, in [14], the “fold affinity improvement compared to MS-GPC-8/B8” value turned out to be 5 fold. In [1], this molecule yielded a Kd of 58.6 nM, a koff of 0.00548 s⁻¹ and a kon of 96000 M⁻¹ s⁻¹. Besides, in [3], the “maximum capacity to kill MHH-Call 4 cells” value turned out to be 78%. In addition, the “EC50 of cell killing” value in assay [7] was 16 nM. Also, in assay [9], the affinity, expressed as Kd, was 54.7 nM; the koff stood at 0.00548 s⁻¹; the kon amounted to 100000 M⁻¹ s⁻¹. Also, in assay [15], the dissociation constant Kd amounted to 54.7 nM, the koff amounted to 0.00548 s⁻¹ and the kon worked out at 100000 M⁻¹ s⁻¹.

By Kd is commonly meant the free concentration of one partner at which half of the binding sites on the other are occupied at equilibrium, for simple one-to-one binding. One may read the koff as the first-order rate constant of dissociation. Higher therefore signals fast dissociation. A word on the kon: it is the rate constant with which the complex forms. A lower kon goes with slow association.
